Consider five molecules from article PMC8511049, “hSSB2 (NABP1) is required for the recruitment of RPA during the cellular response to DNA UV damage”.

The target of data set [1] is T1, hSSB2-OB (NABP1 OB domain) (human, UniProt Q96AH0 1-132). Description: SPR competition; almost same affinity as undamaged GATTGC; value only in figure; 2 mM MgCl2; SPR: 20 mM Tris pH 7.0, 50 mM NaCl, 2 mM MgCl2, 0.01% P20, 2 mM DTT; EMSA: 20 mM Tris pH 7.5, 100 mM NaCl, 1 mM DTT, 100 µg/mL BSA, 37 °C; agarose shift: 10 mM. Particulars: protein: recombinant; tags: GST tag (pGEX-6P) removed by HRV3C protease; single strand.
T1 sequence (Q96AH0 1-132): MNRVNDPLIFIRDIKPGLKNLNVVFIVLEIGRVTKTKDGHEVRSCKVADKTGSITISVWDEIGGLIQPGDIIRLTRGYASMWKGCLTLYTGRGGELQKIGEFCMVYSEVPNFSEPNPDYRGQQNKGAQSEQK

Data set [2] addresses T1, hSSB2-OB (NABP1 OB domain). Description: EMSA; SPR: 20 mM Tris pH 7.0, 50 mM NaCl, 2 mM MgCl2, 0.01% P20, 2 mM DTT; EMSA: 20 mM Tris pH 7.5, 100 mM NaCl, 1 mM DTT, 100 µg/mL BSA, 37 °C; agarose shift: 10 mM. Particulars: protein: recombinant, tags: GST tag (pGEX-6P) removed by HRV3C protease, label: 32P.
The target of data set [3] is T1, hSSB2-OB (NABP1 OB domain). Description: SPR competition; competes with immobilised biotinylated wild-type ssDNA; 2 mM MgCl2; SPR: 20 mM Tris pH 7.0, 50 mM NaCl, 2 mM MgCl2, 0.01% P20, 2 mM DTT; EMSA: 20 mM Tris pH 7.5, 100 mM NaCl, 1 mM DTT, 100 µg/mL BSA, 37 °C; agarose shift: 10 mM. Particulars: protein: recombinant; tags: GST tag (pGEX-6P) removed by HRV3C protease; blunt, central 2-nt mismatch (TT opposite CC; S3 positions 11-12).

The target in data set [4] is T1, hSSB2-OB (NABP1 OB domain). Nature of the data set: SPR competition; competes with immobilised biotinylated wild-type ssDNA; value only in figure; 2 mM MgCl2; SPR: 20 mM Tris pH 7.0, 50 mM NaCl, 2 mM MgCl2, 0.01% P20, 2 mM DTT; EMSA: 20 mM Tris pH 7.5, 100 mM NaCl, 1 mM DTT, 100 µg/mL BSA, 37 °C; agarose shift: 10 mM. Particulars: protein: recombinant; tags: GST tag (pGEX-6P) removed by HRV3C protease; single strand.

With GATTGC (ssDNA, cyclobutane pyrimidine dimer between T3 and T4) [6mer GATTGC with CPD], in data set [1], the binding result is “binds”.
In the case of CCTCGAGGGATCCGTCCTAGCAAGCCGCTGCTACCGGAAGCTTCTGGACC (ssDNA) [50mer ssDNA (EMSA)], the binding result in data set [2] (single strand) is on record as “binds”.

B1: 50 bp dsDNA (EMSA) (dsDNA)
DNA 1: CCTCGAGGGATCCGTCCTAGCAAGCCGCTGCTACCGGAAGCTTCTGGACC
DNA 2: GGTCCAGAAGCTTCCGGTAGCAGCGGCTTGCTAGGACGGATCCCTCGAGG
In the case of B1, the binding result in data set [2] (blunt) is “no binding”.

B2: 23mer duplex with 2-nt bubble (dsDNA)
DNA 1: CGAACGATCATTACTAGCTCCAA
DNA 2: TTGGAGCTAGTCCTGATCGTTCG
Consider B2, for which the Ki in data set [3] stood at 1000 nM.
On to GATTGC (ssDNA) [6mer GATTGC wild-type], for which the binding result in data set [4] was “binds”.
